Target: CD47 (human) (UniProt Q08722)
Assay: cell binding (FACS); PC-3 cells
Details: Fc fusion

- EC50: 0.58 µg/mL
Substance: SIRPαD1-Fc

— patent US20210388043A1
